{"source": "patent US20020164762A1", "about": "(BASF AKTIENGESELLSCHAFT, published 2002)", "binders": {"B1": {"name": "wild-type p10 subunit of human ICE (other)", "chain": "AIKKAHIEKDFIAFCSSTPDNVSWRHPTMGSVFIGRLIEHMQEYACSCDVEEIFRKVRFSFEQPDGRAQMPTTERVTLTRCFYLFPGH", "notes": "Subunit released from WT N-His p30 by autoprocessing; also called ICE 317-404"}, "B2": {"name": "D381E-modified p10 subunit of human ICE (other)", "chain": "B1 chain with D65E", "notes": "Subunit released from D381E N-His p30 by autoprocessing; also called p10 D381E; ICE 317-404 D381E"}}, "target": "T1, N-His-tagged p20 subunit of human ICE (human, UniProt P29466 120-297)", "T1 construct": "Subunit released from N-His p30 by autoprocessing", "T1 sequence": "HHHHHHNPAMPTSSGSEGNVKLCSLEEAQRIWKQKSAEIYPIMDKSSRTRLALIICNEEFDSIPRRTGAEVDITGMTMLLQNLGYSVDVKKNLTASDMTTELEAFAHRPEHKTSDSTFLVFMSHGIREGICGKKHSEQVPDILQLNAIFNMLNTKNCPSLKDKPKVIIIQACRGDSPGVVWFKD", "assay": "co-expression as N-His p30 in E. coli, nickel chelating column purification", "excerpt": "ICE (WT or modified) with an N-terminal polyhistidine tag was expressed in E. coli and purified using methodology described in Kamens et al. (1995) J. Biol. Chem., 270:15250-15256. Briefly, a DNA fragment encoding amino acid residues 120 to 404 of wild-type or D381E-modified ICE (p30) was cloned into an expression vector such that the p30-encoding fragment was fused in-frame at its N-terminus to DNA encoding six histidine residues. Following expression, the p30 fragment is correctly processed to p20 and p10 subunits, which associate to form mature, active N-His-tagged ICE proteins. The N-His ICE fusion proteins then were purified on a nickel chelating column (Porath, J. (1992) Protein Expression and Purification 2:263-281).", "note": "Changes are numbered by the printed parent chain. Names may count otherwise."}
{"binder": "B1", "values": [{"measurement": "binding result", "result": "binds"}]}
{"binder": "B2", "values": [{"measurement": "binding result", "result": "binds"}]}
